According to the nanobody polyreactivity screen of Harvey et al. (2022):

Assay: yeast display, Sf9 membrane polyspecificity reagent, FACS + sequencing; frameworks hold sequencing errors
Outline: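 Galactose-induced (36–48 hours) yeast carrying a synthetic nanobody display library were exposed to 10% biotinylated, detergent-solubilized Sf9 membrane reagent at 4 °C for 1 hour. FACS followed streptavidin microbead enrichment, using low and high (top ~1%) gates for expression (anti-HA) and reagent binding (streptavidin). Colony PCR, MiSeq 2 × 250 sequencing and CDR-length filtering followed. Labels for polyreactivity reflect the gate of origin.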

Sequence	polyreactivity (PSR sort gate)
QVQLVESGGGLVQAGGSLRLSCAASGRIFRRYAMGWYRQAPGKEREFVAAITWSGSSTYYADSVKGRFTISRDNAKNTVYLQMNSLKPEDTAVYYCAARHYAVRRSRYPGKLGYYWGQGTQVTVSS	high polyreactivity
QVQLVESGGGLVQAGGSLRLSCAASGRIFRRYASGWYRQAPGKEMELDADITYGVDSTYYADSVKGRFTISRDNAKNTVYLQMNSLKPEDTAVYYCIADRTEDMLYRFVGVTYGYWGQGTQVTVSS	high polyreactivity
QVQLVESGGGLVQAGGSLRLSCAASGRIFRRYTMGWYRQAPGKERELVAAISSGGSTYYADSVKGRFTISRDNAKNTVYLQMNSLKPEDTAVYYCNADSRSQPYYPEFDYWGQGTQVTVSS	low polyreactivity
QVQLVESGGGLVQAGGSLRLSCAASGRIFRRYTMGWYRQAPGKERELVAAISSGGTTYYADSVKGRFTISRDNAKNTVYLQMNSLKPEDTAVYYCAAPWRSSIPHYEYWGQGTQVTVSS	high polyreactivity
QVQLVESGGGLVQAGGSLRLSCAASGRIFRRYVMGWYRQAPGKERELVARIRIRDSNTYYADSVKGRFTISRDNAKNTVYLQMNSLKPEDTAVYYCNADTWADRSTYDYWGQGTQVTVSS	low polyreactivity
QVQLVESGGGLVQAGGSLRLSCAASGRIFRSNGMGWYRQAPGKERELVAAITYRGGNTYYADSVKGRFTISRDNAKNTVYFQMNSLKPEDTAVYYCANQGVRRHYGYDYWGQGTQVTVSS	high polyreactivity
QVQLVESGGGLVQAGGSLRLSCAASGRIFRTKAMGWYRLAPGKERELVAAITFSGGGTYYADSVKGRFTISRDNAKNTVYLQMNSLKPEDTAVYYCATDWYYEYYYWGQGTQVTVSS	low polyreactivity
QVQLVESGGGLVQAGGSLRLSCAASGRIFRTNAMGWYRQAHGKEWELVAAITRGGTTNYADSVKGRFTISRDNAKNTVYLQMNSLKPEDTAVYYCAVDQGYVVRLAWIYGYWGQGTQVTVSS	low polyreactivity
QVQLVESGGGLVQAGGSLRLSCAASGRIFRTYAMGWYRQAPGKERELVDAISYSGGSTFYADSVKRRFTISRDNAKNTVYLQMNSLKPEYTAVYYCAADSRAKRYYWGQGTQVTVSS	high polyreactivity
QVQLVESGGGLVQAGGSLRLSCAASGRIFRTYTMGWYRQAPGKERELVAAISRSGASTYYADSVKGRFTISRDNAKNTVYLQMNSLKPEDTAVYYCAKLILSTALVSRPGVDYWGQGTQVTVSS	high polyreactivity
QVQLVESGGGLVQAGGSLRLSCAASGRIFRVNALGWYRQATRKERELVAGITQGDGSTYYADSVKGRFTISRDNAKNTVYLQMNSLKPEDTAVYYCAAEGFYTTGSPYSGGLDYWGQGTQVTVSS	low polyreactivity
QVQLVESGGGLVQAGGSLRLSCAASGRIFRVNAMGWYRQAPGKERELVAAINFSGTSTYYADSVKGRFTISRDNAKNTVYLQMNSLKPEDTAVYYCNALTTSNSGRFYYWGQGTQVTVSS	low polyreactivity
QVQLVESGGGLVQAGGSLRLSCAASGRIFRVNAMGWYRQAPGKERELVATITGSGGSTYYADSVKGRFTISRDNAKNTVYLQMNSLKPEDTAVYYCAAVSYWPTDRYYSWGQGTQVTVSS	low polyreactivity
QVQLVESGGGLVQAGGSLRLSCAASGRIFRVYAMGWYRQAPGKERELVAVISARGGNTYYADSVKGRFTISRDNAKNTVYLQMNSMKPEDTAVYYCAARGRMDYWGQGTQVTVSS	high polyreactivity
QVQLVESGGGLVQAGGSLRLSCAASGRIFRWNAMGWYRQAPGKERELVAAISRSGGSTYYADSVKRRFTISRDNAKNTVYLQMNSLKPEDTAVYYCNTRFSTFTAPGYYYWGQGTQVTVSS	high polyreactivity
QVQLVESGGGLVQAGGSLRLSCAASGRIFRWYAMGWNRQAPGQERELVAAITRGDITNYADSVKGRFTISRDNAKNTVYLQMNSLKPEDTAVYYCNAQWYDIYDYWGQGSQVTVSS	high polyreactivity
QVQLVESGGGLVQAGGSLRLSCAASGRIFRWYAMGWYRQAPGKEREIVAAITSSGGSTYYADSVKGRFTISRDNAKNTVYLQMNSLKPEDTAFYYCAALLYLGGSYSRGYYWGQGTQVTVSS	high polyreactivity
